Source: US20220088215A1

Target: Asialoglycoprotein receptor 1 (ASGR1) on the surface of HEPG2 cells (human) (UniProt P07306)
Assay: cell-based or functional assay

Sequence of UniProt P07306 (P07306 whole entry): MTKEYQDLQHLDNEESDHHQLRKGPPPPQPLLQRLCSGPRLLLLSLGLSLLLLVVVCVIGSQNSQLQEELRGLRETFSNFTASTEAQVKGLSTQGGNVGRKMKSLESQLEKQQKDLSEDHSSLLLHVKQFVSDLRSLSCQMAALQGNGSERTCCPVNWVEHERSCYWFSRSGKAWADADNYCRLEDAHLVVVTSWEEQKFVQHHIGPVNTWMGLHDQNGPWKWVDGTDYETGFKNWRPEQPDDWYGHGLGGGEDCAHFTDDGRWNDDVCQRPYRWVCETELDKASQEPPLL

improvement of mmu-miR-298-5p uptake efficiency into HEPG2 cells, against unmodified EVs: 60%
relative quantification of mmu-miR-298-5p in Hep-G2 cells (qRT-PCR, relative ratio to control cells) (relative ratio): 2000
relative quantification of mmu-miR-298-5p in Hep-G2 cells, against DharmaFECT transfection: 8 fold
Substance: Anti-Asialoglycoprotein Receptor 1/HL-1 antibody (abCAM, Product Number ab49355)
